Results on 32 sequences are retold here after the Immune Epitope Database (IEDB).

One assay concerns the target HLA-A*03:01. Kind of assay: IEDB peptide-MHC binding, purified MHC/competitive/radioactivity; filed as Kd, often an IC50 or EC50 that approximates it; ≥ and ≤ were set here for values at or beyond the usual limits of such assays. Particulars: source organism: Vaccinia virus WR.
The target of the next assay is HLA-A*33:01. Described as above. Particulars: source organism: Vaccinia virus WR.
The next assay addresses HLA-A*30:01. The assay is described as above.
In another assay the target is HLA-A*68:01. The description is as above. Particulars: source organism: Vaccinia virus WR.
Another assay addresses HLA-A*31:01. Described as above. Particulars: source organism: Vaccinia virus WR.
The target of the next assay is HLA-A*11:01. Described as above. Particulars: source organism: Vaccinia virus WR.
In another assay the target is HLA-B*53:01. The assay is described as above.
Another assay addresses HLA-B*35:01. The assay is described as above.
The target of another assay is HLA-B*15:01. The description is as above.
A further assay addresses HLA-A*02:03. The assay is described as above.
The target of a further assay is HLA-A*02:02. Described as above.
For the next assay, the target named is HLA-A*02:06. The assay is described as above.
Another assay has as its target HLA-A*68:02. The description is as above.
Assay [1] deals with HLA-A*02:01. The assay is described as above.
The target of another assay is HLA-A*26:01. Described as above. To be noted: source organism: Dengue virus 3 Sri Lanka/1266/2000.
Another assay deals with HLA-A*24:02. Kind of assay: IEDB peptide-MHC binding, purified MHC/competitive/fluorescence; ≥ and ≤ were set here for values at or beyond the usual limits of such assays.
A further assay deals with HLA-B*51:01. Kind of assay: IEDB peptide-MHC binding, purified MHC/competitive/radioactivity; filed as Kd, often an IC50 or EC50 that approximates it; ≥ and ≤ were set here for values at or beyond the usual limits of such assays. To be noted: source organism: Dengue virus 2 Jamaica/1409/1983.
The target of a further assay is HLA-B*07:02. The description is as above.
Another assay has as its target HLA-A*32:01. The assay is described as above.
In assay [2] the target is HLA-A*02:01. Kind of assay: IEDB peptide-MHC binding, purified MHC/competitive/fluorescence; ≥ and ≤ were set here for values at or beyond the usual limits of such assays. Particulars: source organism: Vaccinia virus WR.
For another assay, the target named is HLA-A*01:01. Kind of assay: IEDB peptide-MHC binding, purified MHC/competitive/radioactivity; filed as Kd, often an IC50 or EC50 that approximates it; ≥ and ≤ were set here for values at or beyond the usual limits of such assays. Particulars: source organism: Dengue virus 3 Martinique/1243/1999.
For the next assay, the target named is HLA-A*30:02. Described as above. To be noted: source organism: Dengue virus 3 Martinique/1243/1999.
A further assay addresses HLA-A*23:01. Described as above. Particulars: source organism: Dengue virus 2 Jamaica/1409/1983.
[3] abbreviates: source organism: Dengue virus 4 Philippines/H241/1956.
[4] abbreviates: source organism: Vaccinia virus WR.
[5] abbreviates: source organism: Trypanosoma cruzi.
Setting [6] is: source organism: Dengue virus 3 Sri Lanka/1266/2000.
Setting [7] is: source organism: Zaire ebolavirus.
Where [8] appears, read: source organism: Dengue virus 2 Jamaica/1409/1983.
[9] abbreviates: source organism: Dengue virus 3 Martinique/1243/1999.
Setting [10] is: source organism: Dengue virus 1 Brazil/97-11/1997.
Where [11] appears, read: source organism: Lassa virus Josiah.

What is called Kd is the free concentration of one partner at which half of the binding sites on the other are occupied at equilibrium, for simple one-to-one binding. The IC50 is the concentration that inhibits the measured activity by half.

For LARRPTPKK, the Kd with HLA-A*03:01 came out at 185 nM; with HLA-A*33:01 it was 19300 nM; in the assay with HLA-A*30:01 (source organism: Vaccinia virus Copenhagen), 10.4 nM; with HLA-A*68:01 it was 430 nM; with HLA-A*31:01, 70.4 nM; with HLA-A*11:01, 431 nM.
LAMTDTTPF: the Kd with HLA-B*53:01 (setting [3]) was determined as 94.3 nM; in the assay with HLA-B*35:01 (setting [3]), 1.67 nM; with HLA-B*15:01 (setting [3]), 3.92 nM.
For MSIVCIVAA, the Kd in the assay with HLA-B*15:01 (setting [4]) was found to be 3070 nM.
With GLLPSLLLLG, the dissociation constant Kd turned out to be 137 nM in the assay with HLA-A*02:03 (setting [5]); 261 nM with HLA-A*02:02 (setting [5]); 127 nM with HLA-A*02:06 (setting [5]); 3750 nM in the assay with HLA-A*68:02 (setting [5]); 120 nM with HLA-A*02:01 [1] (setting [5]).
For TVAAMGVPPL, the Kd was found to be 12200 nM with HLA-A*26:01, 3210 nM with HLA-A*30:01 (setting [6]) and 19.8 nM with HLA-A*68:02 (setting [6]).
For the sequence KYYIKNIGN, the IC50 with HLA-A*24:02 (source organism: Vaccinia virus) is at least 101000 nM.
With AYQGDYKLF, in the assay with HLA-A*24:02 (setting [7]), the IC50 stood at 540 nM.
For FPQSNAPIM, the Kd with HLA-B*53:01 (setting [8]) was 1.8 nM; in the assay with HLA-B*51:01, 632 nM; with HLA-B*07:02 (setting [8]), 12.1 nM; with HLA-B*35:01 (setting [8]) it was 13600 nM.
In the case of TPTGTVMDII, the Kd in the assay with HLA-B*07:02 (setting [9]) amounted to 219 nM.
On to MMCYFLTATP, for which the Kd with HLA-A*02:01 [1] (setting [4]) was 18 nM.
Turning to LKVFLPNPA, the IC50 with HLA-A*24:02 (source organism: Variola virus) is 20300 nM.
Turning to LTYFCFVAL, the Kd came to 615 nM in the assay with HLA-A*32:01 (setting [4]) and 28.5 nM with HLA-B*15:01 (setting [4]).
In the case of FAISYCRAF, the Kd with HLA-B*15:01 (setting [4]) worked out at 76.1 nM.
Sequence EGVVAFLIL had an IC50 with HLA-A*24:02 (setting [7]) of at least 80300 nM.
GAQHSTTLF yielded an IC50 in the assay with HLA-A*24:02 (source organism: Sudan ebolavirus) of 42100 nM.
In the case of GLITCKAFG, the figures for the IC50 with HLA-A*02:01 [2] and in the assay with HLA-A*24:02 (setting [4]) were 60500 nM and at least 168000 nM, respectively.
With LSRNSTHEM, the Kd is 106 nM in the assay with HLA-A*30:01 (setting [9]) and 39.7 nM in the assay with HLA-B*15:01 (setting [9]).
In the assay with HLA-A*24:02 (setting [7]), IYTSGKRSN returned an IC50 of 6370 nM.
Regarding LPEYGTLGL, the Kd with HLA-B*53:01 (setting [9]) is 545 nM; with HLA-B*07:02 (setting [9]), 40.1 nM.
As for HQHLAIMFK, the Kd with HLA-A*30:01 (setting [4]) was determined as 4.99 nM.
Sequence QARFSGLLI displayed an IC50 in the assay with HLA-A*24:02 (setting [7]) of 16700 nM.
With ISKIPGGAMY, the Kd in the assay with HLA-A*01:01 is at least 23800 nM; with HLA-B*15:01 (setting [9]), 136 nM; with HLA-A*30:02, 9.35 nM.
With QPATLRKYCI, the Kd was at least 26100 nM with HLA-B*51:01 and 660 nM in the assay with HLA-B*07:02 (setting [8]).
In the case of KQERGKSLLF, in the assay with HLA-B*15:01 (setting [10]), the Kd amounted to 118 nM.
Turning to TFKTAHAKK, in the assay with HLA-A*30:01 (setting [10]), the Kd amounted to 99.4 nM.
Turning to RLLGTFTWT, the Kd with HLA-A*02:03 (setting [11]) is 104 nM; with HLA-A*02:02 (setting [11]), 323 nM; with HLA-A*02:06 (setting [11]), 137 nM; in the assay with HLA-A*68:02 (setting [11]), at least 5000 nM; with HLA-A*02:01 [1] (setting [11]), 33.8 nM.
With MLRVYNNTA, in the assay with HLA-B*15:01 (setting [4]), the Kd was determined as 188 nM.
As to KYKPVYSYV, in the assay with HLA-A*30:01 (setting [4]), the Kd was found to be 0.74 nM.
Turning to KADRVIDPRR, in the assay with HLA-A*30:01 (setting [9]), the Kd was 5180 nM.
In the case of KLFMALVAF, the Kd with HLA-A*23:01 is 4740 nM; with HLA-A*32:01 (setting [8]), 37.8 nM; in the assay with HLA-B*15:01 (setting [8]) it was 198 nM.
With APSTGSASSM, the Kd was found to be 19.3 nM with HLA-B*07:02 (setting [3]) and 377 nM in the assay with HLA-B*35:01 (setting [3]).
Take LVKRFSTGLF: in the assay with HLA-B*15:01 (setting [3]), the Kd is 256 nM.
